From patent US20240117334A1 (VERTEX PHARMACEUTICALS, published 2024)
Where “and” joins values, the source holds several entries; their conditions need not be identical. Equal entries are not always repeated.

T1: Plasma antichymotrypsin (ACT) (UniProt P01011 24-423)
T1 construct: also called plasma ACT
T1 sequence (looked up): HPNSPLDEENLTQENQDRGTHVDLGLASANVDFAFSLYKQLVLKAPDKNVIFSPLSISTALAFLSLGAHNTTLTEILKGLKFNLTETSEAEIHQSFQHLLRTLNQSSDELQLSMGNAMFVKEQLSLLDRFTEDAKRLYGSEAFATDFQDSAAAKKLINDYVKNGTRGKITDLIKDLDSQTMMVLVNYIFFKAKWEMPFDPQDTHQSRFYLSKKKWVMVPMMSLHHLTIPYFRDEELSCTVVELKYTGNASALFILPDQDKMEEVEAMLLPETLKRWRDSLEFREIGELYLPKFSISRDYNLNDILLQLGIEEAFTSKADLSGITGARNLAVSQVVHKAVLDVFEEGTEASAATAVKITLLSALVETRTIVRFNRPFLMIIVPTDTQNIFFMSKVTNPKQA


Legend:
[1] = biological target: T2, Human Factor B (human, UniProt P00751 26-764); test: cell-based or functional assay
[2] = biological target: T2, Human Factor B; test: cell-based or functional assay; remark: listed apart in the source
[3] = biological target: T1, Plasma antichymotrypsin (ACT); test: serpin inhibition of the protease

T2 sequence (P00751 26-764 limits assumed): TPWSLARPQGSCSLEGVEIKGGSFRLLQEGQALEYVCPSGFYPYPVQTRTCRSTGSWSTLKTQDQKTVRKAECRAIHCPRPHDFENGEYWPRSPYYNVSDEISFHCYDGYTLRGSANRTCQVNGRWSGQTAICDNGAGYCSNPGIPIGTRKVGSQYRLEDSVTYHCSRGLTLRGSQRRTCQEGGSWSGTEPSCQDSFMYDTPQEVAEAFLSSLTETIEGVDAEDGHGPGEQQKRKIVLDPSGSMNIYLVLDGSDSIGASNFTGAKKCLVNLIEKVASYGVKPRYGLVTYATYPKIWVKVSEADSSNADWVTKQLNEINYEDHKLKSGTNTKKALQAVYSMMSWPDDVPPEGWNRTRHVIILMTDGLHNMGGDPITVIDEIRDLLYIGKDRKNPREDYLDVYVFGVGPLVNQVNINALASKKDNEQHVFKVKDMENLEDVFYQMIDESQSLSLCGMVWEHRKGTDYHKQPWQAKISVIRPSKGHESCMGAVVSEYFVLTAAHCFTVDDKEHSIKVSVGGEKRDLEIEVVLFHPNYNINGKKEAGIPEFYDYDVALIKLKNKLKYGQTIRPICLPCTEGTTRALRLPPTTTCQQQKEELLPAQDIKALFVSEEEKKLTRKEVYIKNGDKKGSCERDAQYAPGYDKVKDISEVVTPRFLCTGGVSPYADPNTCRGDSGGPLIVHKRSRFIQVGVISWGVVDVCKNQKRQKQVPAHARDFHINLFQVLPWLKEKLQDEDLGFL

Binder	Hu fB Add-Back EC50 [1]	fB Cleavage, 80% plasma EC50 [2]	kapp [3] [M⁻¹ s⁻¹]	fB Cleavage EC50 [2] [nM]
MTSP-1 A77aT/F94Y/C122S/D125G (enzyme) VVGGTDADEGEWPWQVSLHALGQGHICGASLISPNWLVSAAHCYIDDRGFRYSDPTQWTAFLGLHDQSQRSTPGVQERRLKRIISHPFYNDFTFDYDIALLELEKPAEYSSMVRPISLPGASHVFPAGKAIWVTGWGHTQYGGTGALILQKGEIRVINQTTCENLLPQQITPRMMCVGFLSGGVDSCQGDSGGPLSSVEADGRIFQAGVVSWGDGCAQRNKPGVYTRLPLFRDWIKENTGV	65.9 nM and 125 nM			
MTSP-1 I41N/F97D/F99L/C122S/C[17]S/C[19]S (enzyme) VVGGTDADEGEWPWQVSLHALGQGHNCGASLISPNWLVSAAHCYIDDRGFRYSDPTQWTAFLGLHDQSQRSAPGVQERRLKRIISHPFFNDDTLDYDIALLELEKPAEYSSMVRPISLPDASHVFPAGKAIWVTGWGHTQYGGTGALILQKGEIRVINQTTCENLLPQQITPRMMCVGFLSGGVDSCQGDSGGPLSSVEADGRIFQAGVVSWGDGCAQRNKPGVYTRLPLFRDWIKENTGV	223 nM			
MTSP-1 I41A/F97D/F99L/C122S (enzyme) VVGGTDADEGEWPWQVSLHALGQGHACGASLISPNWLVSAAHCYIDDRGFRYSDPTQWTAFLGLHDQSQRSAPGVQERRLKRIISHPFFNDDTLDYDIALLELEKPAEYSSMVRPISLPDASHVFPAGKAIWVTGWGHTQYGGTGALILQKGEIRVINQTTCENLLPQQITPRMMCVGFLSGGVDSCQGDSGGPLSSVEADGRIFQAGVVSWGDGCAQRNKPGVYTRLPLFRDWIKENTGV	283 nM			
MTSP-1 I41G/F97D/F99L/C122S/Y146D/C[17]S/C[19]S (enzyme) VVGGTDADEGEWPWQVSLHALGQGHGCGASLISPNWLVSAAHCYIDDRGFRYSDPTQWTAFLGLHDQSQRSAPGVQERRLKRIISHPFFNDDTLDYDIALLELEKPAEYSSMVRPISLPDASHVFPAGKAIWVTGWGHTQDGGTGALILQKGEIRVINQTTCENLLPQQITPRMMCVGFLSGGVDSCQGDSGGPLSSVEADGRIFQAGVVSWGDGCAQRNKPGVYTRLPLFRDWIKENTGV	283 nM and 395 nM			
MTSP-1 I41G/F97E/F99L/C122S/C[17]S/C[19]S (enzyme) VVGGTDADEGEWPWQVSLHALGQGHGCGASLISPNWLVSAAHCYIDDRGFRYSDPTQWTAFLGLHDQSQRSAPGVQERRLKRIISHPFFNDETLDYDIALLELEKPAEYSSMVRPISLPDASHVFPAGKAIWVTGWGHTQYGGTGALILQKGEIRVINQTTCENLLPQQITPRMMCVGFLSGGVDSCQGDSGGPLSSVEADGRIFQAGVVSWGDGCAQRNKPGVYTRLPLFRDWIKENTGV	362 nM and 358 nM and 292 nM			
MTSP-1 F97L/T98G/F99V/C122S/C[17]S/C[19]S/-null_D96insD (enzyme) VVGGTDADEGEWPWQVSLHALGQGHICGASLISPNWLVSAAHCYIDDRGFRYSDPTQWTAFLGLHDQSQRSAPGVQERRLKRIISHPFFNDDLGVDYDIALLELEKPAEYSSMVRPISLPDASHVFPAGKAIWVTGWGHTQYGGTGALILQKGEIRVINQTTCENLLPQQITPRMMCVGFLSGGVDSCQGDSGGPLSSVEADGRIFQAGVVSWGDGCAQRNKPGVYTRLPLFRDWIKENTGV	4590 nM and 3490 nM			
chymase C22S/K40L/F41H/L99N/F173Y/S218L/A226R (enzyme) IIGGTESKPHSRPYMAYLEIVTSNGPSLHCGGFLIRRNFVLTAAHCAGRSITVTLGAHNITEEEDTWQKLEVIKQFRHPKYNTSTNHHDIMLLKLKEKASLTLAVGTLPFPSQFNFVPPGRMCRVAGWGRTGVLKPGSDTLQEVKLRLMDPQACSHYRDFDHNLQLCVGNPRKTKSAFKGDSGGPLLCAGVAQGIVSYGRLDAKPPRVFTRISHYRPWINQILQAN		13900 nM	193	

Next, values leading:

Hu fB Add-Back EC50 [1]	fB Cleavage, 80% plasma EC50 [2]	kapp [3] [M⁻¹ s⁻¹]	fB Cleavage EC50 [2] [nM]	Binder
	11200 nM	317		chymase C22S/K40M/F41R/L99N/G151S/F173Y/S218L/A226R (enzyme) IIGGTESKPHSRPYMAYLEIVTSNGPSMRCGGFLIRRNFVLTAAHCAGRSITVTLGAHNITEEEDTWQKLEVIKQFRHPKYNTSTNHHDIMLLKLKEKASLTLAVGTLPFPSQFNFVPPGRMCRVAGWGRTGVLKPSSDTLQEVKLRLMDPQACSHYRDFDHNLQLCVGNPRKTKSAFKGDSGGPLLCAGVAQGIVSYGRLDAKPPRVFTRISHYRPWINQILQAN
	5700 nM	28		chymase C22S/K40L/F41K/L99N/F173Y/D175N/S218L/A226R (enzyme, also called MS No. 8) IIGGTESKPHSRPYMAYLEIVTSNGPSLKCGGFLIRRNFVLTAAHCAGRSITVTLGAHNITEEEDTWQKLEVIKQFRHPKYNTSTNHHDIMLLKLKEKASLTLAVGTLPFPSQFNFVPPGRMCRVAGWGRTGVLKPGSDTLQEVKLRLMDPQACSHYRNFDHNLQLCVGNPRKTKSAFKGDSGGPLLCAGVAQGIVSYGRLDAKPPRVFTRISHYRPWINQILQAN
	14800 nM	147		chymase C22S/K40L/F41K/L99H/F173Y/S218L/A226R (enzyme) IIGGTESKPHSRPYMAYLEIVTSNGPSLKCGGFLIRRNFVLTAAHCAGRSITVTLGAHNITEEEDTWQKLEVIKQFRHPKYNTSTHHHDIMLLKLKEKASLTLAVGTLPFPSQFNFVPPGRMCRVAGWGRTGVLKPGSDTLQEVKLRLMDPQACSHYRDFDHNLQLCVGNPRKTKSAFKGDSGGPLLCAGVAQGIVSYGRLDAKPPRVFTRISHYRPWINQILQAN
	17200 nM	139		chymase C22S/K40L/F41K/L99H/G151S/F173Y/S218L/A226R (enzyme) IIGGTESKPHSRPYMAYLEIVTSNGPSLKCGGFLIRRNFVLTAAHCAGRSITVTLGAHNITEEEDTWQKLEVIKQFRHPKYNTSTHHHDIMLLKLKEKASLTLAVGTLPFPSQFNFVPPGRMCRVAGWGRTGVLKPSSDTLQEVKLRLMDPQACSHYRDFDHNLQLCVGNPRKTKSAFKGDSGGPLLCAGVAQGIVSYGRLDAKPPRVFTRISHYRPWINQILQAN
	4090 nM and 3760 nM	37	119	chymase C22S/K40L/F41R/L99N/F173Y/D175N/S218L/A226R (enzyme, also called MS No. 15) IIGGTESKPHSRPYMAYLEIVTSNGPSLRCGGFLIRRNFVLTAAHCAGRSITVTLGAHNITEEEDTWQKLEVIKQFRHPKYNTSTNHHDIMLLKLKEKASLTLAVGTLPFPSQFNFVPPGRMCRVAGWGRTGVLKPGSDTLQEVKLRLMDPQACSHYRNFDHNLQLCVGNPRKTKSAFKGDSGGPLLCAGVAQGIVSYGRLDAKPPRVFTRISHYRPWINQILQAN
		935	605	chymase C22S/S189T/A190S/A226R (enzyme) IIGGTESKPHSRPYMAYLEIVTSNGPSKFCGGFLIRRNFVLTAAHCAGRSITVTLGAHNITEEEDTWQKLEVIKQFRHPKYNTSTLHHDIMLLKLKEKASLTLAVGTLPFPSQFNFVPPGRMCRVAGWGRTGVLKPGSDTLQEVKLRLMDPQACSHFRDFDHNLQLCVGNPRKTKTSFKGDSGGPLLCAGVAQGIVSYGRSDAKPPRVFTRISHYRPWINQILQAN
	17100 nM	252		chymase C22S/K40L/F41L/L99N/G151H/F173Y/S218V/A226R (enzyme) IIGGTESKPHSRPYMAYLEIVTSNGPSLLCGGFLIRRNFVLTAAHCAGRSITVTLGAHNITEEEDTWQKLEVIKQFRHPKYNTSTNHHDIMLLKLKEKASLTLAVGTLPFPSQFNFVPPGRMCRVAGWGRTGVLKPHSDTLQEVKLRLMDPQACSHYRDFDHNLQLCVGNPRKTKSAFKGDSGGPLLCAGVAQGIVSYGRVDAKPPRVFTRISHYRPWINQILQAN
	15600 nM	190	379	chymase C22S/K40L/F41R/L99N/F173Y/S218L/A226R (enzyme) IIGGTESKPHSRPYMAYLEIVTSNGPSLRCGGFLIRRNFVLTAAHCAGRSITVTLGAHNITEEEDTWQKLEVIKQFRHPKYNTSTNHHDIMLLKLKEKASLTLAVGTLPFPSQFNFVPPGRMCRVAGWGRTGVLKPGSDTLQEVKLRLMDPQACSHYRDFDHNLQLCVGNPRKTKSAFKGDSGGPLLCAGVAQGIVSYGRLDAKPPRVFTRISHYRPWINQILQAN
